Laboratory results taken from US20240245796A1 (PROFOUNDBIO US, published 2024).

Columns and labels:
[1] = target: T1, human FOLR3 extracellular domain linked to His tag (human, UniProt P41439 23-245, limits assumed); test: BLI, Ag 15.6 nM; * = below range of quantification
T1 construct: extracellular domain; Antigen in solution in BLI; also called Hu-FRg; not shown: His tag

[2] = target: T2, human FOLR2 extracellular domain linked to His tag (human, UniProt P14207 17-230, limits assumed); test: BLI, Ag 15.6 nM; * = below range of quantification
T2 construct: extracellular domain; Antigen in solution in BLI; also called Hu-FRb; not shown: His tag
T2 sequence (P14207 17-230 limits assumed): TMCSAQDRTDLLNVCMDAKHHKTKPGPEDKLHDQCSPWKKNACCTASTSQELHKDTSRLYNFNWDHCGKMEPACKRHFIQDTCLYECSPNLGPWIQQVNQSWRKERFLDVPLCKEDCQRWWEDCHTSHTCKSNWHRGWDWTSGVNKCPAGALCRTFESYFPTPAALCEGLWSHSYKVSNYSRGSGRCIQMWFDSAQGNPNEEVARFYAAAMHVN

[3] = target: T3, rat FOLR1 extracellular domain linked to His tag (rat); test: BLI, Ag 7.82 nM; * = below range of quantification
T3 construct: extracellular domain; Antigen in solution in BLI; also called Rat-Ag

[4] = target: T4, mouse FOLR1 extracellular domain linked to His tag (mouse, UniProt P35846 25-232, limits assumed); test: BLI, global 1:1 fit (250 nM row); only the 500 nM response quantifiable
T4 construct: extracellular domain; Antigen in solution in BLI; also called Mouse-Ag; not shown: His tag
T4 sequence (P35846 25-232 limits assumed): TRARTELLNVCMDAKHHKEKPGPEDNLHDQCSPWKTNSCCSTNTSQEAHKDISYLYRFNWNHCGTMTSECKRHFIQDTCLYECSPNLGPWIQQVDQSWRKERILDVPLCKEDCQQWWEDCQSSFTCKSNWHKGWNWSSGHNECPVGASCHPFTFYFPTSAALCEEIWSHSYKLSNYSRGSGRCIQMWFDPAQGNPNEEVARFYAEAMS

[5] = target: T3, rat FOLR1 extracellular domain linked …; test: BLI, Ag 62.5 nM; * = below range of quantification
[6] = target: T3, rat FOLR1 extracellular domain linked …; test: BLI, global 1:1 fit (62.5 nM row); all responses below quantification
[7] = target: T5, cynomolgus monkey FOLR1 extracellular domain linked to His tag (cynomolgus monkey, UniProt A0A2K5U044 25-233); test: BLI, Ag 62.5 nM over Ab on anti-hIgG Fc tip
T5 construct: extracellular domain; Antigen in solution in BLI; It may be the same product as m14; also called Cyno-Ag; not shown: His tag
T5 sequence (A0A2K5U044 entry or part of it): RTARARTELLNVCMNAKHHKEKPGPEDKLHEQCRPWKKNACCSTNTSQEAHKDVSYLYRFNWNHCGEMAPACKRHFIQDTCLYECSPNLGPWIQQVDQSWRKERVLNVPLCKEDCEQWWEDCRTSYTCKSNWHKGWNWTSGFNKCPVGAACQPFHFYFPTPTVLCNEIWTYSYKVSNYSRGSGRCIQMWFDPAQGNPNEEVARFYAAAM

[8] = target: T6, human FOLR1 extracellular domain linked to His tag (human, UniProt P15328 25-233, limits assumed); test: BLI, Ag 62.5 nM over Ab on anti-hIgG Fc tip
T6 construct: extracellular domain; It may be the same product as m13; also called Hu-FRα; Hu-Ag; not shown: His tag
T6 sequence (P15328 25-233 limits assumed): as the sequence (A0A2K5U044 entry or part of it) above, with T2I, R4W, K37R, P146A, Y171H counted along it

[9] = target: T4, mouse FOLR1 extracellular domain linked …; test: BLI, global 1:1 fit (62.5 nM row); only the 500 nM response quantifiable
[10] = target: T5, cynomolgus monkey FOLR1 extracellular …; test: BLI, global 1:1 fit (7.82 nM row)
[11] = target: T6, human FOLR1 extracellular domain linked …; test: BLI, global 1:1 fit (7.82 nM row)
[12] = target: T1, human FOLR3 extracellular domain linked …; test: BLI, global 1:1 fit (62.5 nM row); all responses below quantification
[13] = target: T2, human FOLR2 extracellular domain linked …; test: BLI, global 1:1 fit (62.5 nM row)
[14] = target: T6, human FOLR1 extracellular domain linked …; test: BLI, global 1:1 fit (62.5 nM row)
[15] = target: T5, cynomolgus monkey FOLR1 extracellular …; test: BLI, Ag 250 nM over Ab on anti-hIgG Fc tip
[16] = target: T6, human FOLR1 extracellular domain linked …; test: BLI, Ag 250 nM over Ab on anti-hIgG Fc tip
[17] = target: T5, cynomolgus monkey FOLR1 extracellular …; test: BLI, Ag 15.6 nM over Ab on anti-hIgG Fc tip
[18] = target: T6, human FOLR1 extracellular domain linked …; test: BLI, Ag 15.6 nM over Ab on anti-hIgG Fc tip
[19] = target: T3, rat FOLR1 extracellular domain linked …; test: BLI, Ag 125 nM; * = below range of quantification
[20] = target: T5, cynomolgus monkey FOLR1 extracellular …; test: BLI, global 1:1 fit (62.5 nM row)
[21] = target: T6, human FOLR1 extracellular domain linked …; test: BLI, global 1:1 fit (62.5 nM row); remark: listed apart in the source
[22] = target: T5, cynomolgus monkey FOLR1 extracellular …; test: BLI, global 1:1 fit (31.3 nM row)
[23] = target: T6, human FOLR1 extracellular domain linked …; test: BLI, global 1:1 fit (31.3 nM row)

T1 sequence (P41439 23-245 limits assumed): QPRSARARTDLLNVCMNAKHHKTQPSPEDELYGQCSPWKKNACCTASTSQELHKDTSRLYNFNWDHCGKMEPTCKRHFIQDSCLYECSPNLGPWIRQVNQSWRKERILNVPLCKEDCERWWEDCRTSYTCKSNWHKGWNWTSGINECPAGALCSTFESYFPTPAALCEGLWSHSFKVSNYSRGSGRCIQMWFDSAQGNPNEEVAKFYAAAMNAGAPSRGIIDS

B1: F131 (antibody, V domains shown)
VH: EVQLLESGGGVVQPGRSLRLSCAASGFTFSSYGMHWVRQAPGKGLEWVAVISYDGSNKYYADSVKGRFTISRANSKNTLYLQMNSLRAEDTAVYYCARPRAYYGAYGSSFDYWGQGTQVTVSS
VL: EIVMTQSPSSVSASVGDRVAITCRASQGISSWLAWYQQKPGKAPKLLIYAASSLQSGVPSRFSGSGSGTDFTLTISSLQPEDFATYYCQQSYSTPLTFGGGTKVDIK
notes: also called clone F131; F131 mAb
B1 was tested, and the Response [1] was -0.00261, the Response [2] was 0.002 and the Response [3] was -0.00563. The Kd [4] was 2960 nM, the koff [4] was 0.301 s⁻¹ and the kon [4] was 102000 M⁻¹ s⁻¹. It also gave a Response [5] of -0.00606, a koff [6] of 1.03 s⁻¹ and a kon [6] of 5490 M⁻¹ s⁻¹. It also gave a Response [7] of 0.14, a Response [8] of 0.12 and a Kd [9] of 2960 nM. It also gave a koff [9] of 0.301 s⁻¹, a kon [9] of 102000 M⁻¹ s⁻¹ and a Kd [10] of 8.15 nM. For the same binder, the koff [10] was 0.00157 s⁻¹, the kon [10] was 193000 M⁻¹ s⁻¹ and the Kd [11] was 1.53 nM. It also gave a koff [11] of 0.000338 s⁻¹, a kon [11] of 221000 M⁻¹ s⁻¹ and a koff [12] of 0.217 s⁻¹. The kon [12] was 1660 M⁻¹ s⁻¹, the Kd [13] was 142 nM and the koff [13] was 0.0784 s⁻¹. The kon [13] was 552000 M⁻¹ s⁻¹, the Kd [14] was 5.3 nM and the koff [14] was 0.0012 s⁻¹. For the same binder, the kon [14] was 226000 M⁻¹ s⁻¹, the Response [15] was 0.209 and the Response [16] was 0.162. For the same binder, the Response [17] was 0.0485, the Response [18] was 0.0503 and the Response [19] was -0.00477. It also gave a Kd [20] of 8.15 nM, a koff [20] of 0.00157 s⁻¹ and a kon [20] of 193000 M⁻¹ s⁻¹. It also gave a Kd [21] of 1.53 nM, a koff [21] of 0.000338 s⁻¹ and a kon [21] of 221000 M⁻¹ s⁻¹. It also gave a Kd [22] of 8.15 nM, a koff [22] of 0.00157 s⁻¹ and a kon [22] of 193000 M⁻¹ s⁻¹. The Kd [23] was 1.53 nM, the koff [23] was 0.000338 s⁻¹ and the kon [23] was 221000 M⁻¹ s⁻¹.

B2: F131-LD038 (antibody, V domains shown)
VH: EVQLLESGGGVVQPGRSLRLSCAASGFTFSSYGMHWVRQAPGKGLEWVAVISYDGSNKYYADSVKGRFTISRANSKNTLYLQMNSLRAEDTAVYYCARPRAYYGAYGSSFDYWGQGTQVTVSS
VL: EIVMTQSPSSVSASVGDRVAITCRASQGISSWLAWYQQKPGKAPKLLIYAASSLQSGVPSRFSGSGSGTDFTLTISSLQPEDFATYYCQQSYSTPLTFGGGTKVDIK
modifications: drug-linker LD038 (PB038, maleimide-PEG unit-Val-Cit-PAB-exatecan) on cysteines freed by TCEP reduction; positions not given
notes: Antibody-drug conjugate of F131 (IgG1) with LD038; also called anti-huFOLR-1 conjugate F131-LD038; F131-038
With B2 the Response [1] was 0.0084, the Response [2] was 0.0041 and the Response [3] was -0.00438. The Kd [4] was 2870 nM, the koff [4] was 0.266 s⁻¹ and the kon [4] was 92600 M⁻¹ s⁻¹. The Response [5] was -0.00393, the koff [6] was 0.224 s⁻¹ and the kon [6] was 2.64e+06 M⁻¹ s⁻¹. For the same binder, the Response [7] was 0.121, the Response [8] was 0.129 and the Kd [9] was 2870 nM. The koff [9] was 0.266 s⁻¹, the kon [9] was 92600 M⁻¹ s⁻¹ and the Kd [10] was 8.82 nM. The koff [10] was 0.0016 s⁻¹, the kon [10] was 181000 M⁻¹ s⁻¹ and the Kd [11] was 4.8 nM. For the same binder, the koff [11] was 0.00107 s⁻¹, the kon [11] was 224000 M⁻¹ s⁻¹ and the koff [12] was 0.233 s⁻¹. For the same binder, the Kd [13] was 84.4 nM, the koff [13] was 0.0813 s⁻¹ and the kon [13] was 963000 M⁻¹ s⁻¹. For the same binder, the Kd [14] was 4.79 nM, the koff [14] was 0.00121 s⁻¹ and the kon [14] was 252000 M⁻¹ s⁻¹. The Response [15] was 0.18, the Response [16] was 0.184 and the Response [17] was 0.0384. The Response [18] was 0.0447, the Response [19] was 0.0007 and the Kd [20] was 8.82 nM. For the same binder, the koff [20] was 0.0016 s⁻¹, the kon [20] was 181000 M⁻¹ s⁻¹ and the Kd [21] was 4.8 nM. For the same binder, the koff [21] was 0.00107 s⁻¹, the kon [21] was 224000 M⁻¹ s⁻¹ and the Kd [22] was 8.82 nM. For the same binder, the koff [22] was 0.0016 s⁻¹, the kon [22] was 181000 M⁻¹ s⁻¹ and the Kd [23] was 4.8 nM. The koff [23] was 0.00107 s⁻¹ and the kon [23] was 224000 M⁻¹ s⁻¹.
